According to patent publication US20190225692A1 (JUNO THERAPEUTICS, published 2019):
Residue numbers refer to the chain shown, from its start.

B1: TCR 44 (codon optimized, cysteine modified version) (TCR, V domains shown)
V domain 1: GQNIDQPTEMTATEGAIVQINCTYQTSGFNGLFWYQQHAGEAPTFLSYNVLDGLEEKGRFSSFLSRSKGYSYLLLKELQMKDSASYLCAQYSGGYQKVTFGTGTKLQVIP
V domain 2: DSGVTQTPKHLITATGQRVTLRCSPRSGDLSVYWYQQSLDQGLQFLIQYYNGEERAKGNILERFSAQQFPDLHSELNLSSLELGDSALYFCASSGTPDTQYFGPGTRLTVLE
B2: TCR 41 (codon optimized, cysteine modified version) (TCR, V domains shown)
V domain 1: RKEVEQDPGPFNVPEGATVAFNCTYSNSASQSFFWYRQDCRKEPKLLMSVYSSGNEDGRFTAQLNRASQYISLLIRDSKLSDSATYLCVVTFALTGGFKTIFGAGTRLFVKA
V domain 2: EPEVTQTPSHQVTQMGQEVILRCVPISNHLYFYWYRQILGQKVEFLVSFYNNEISEKSEIFDDQFSVERPDGSNFTLKIRSTKLEDSAMYFCASNPRDRVSYEQYFGPGTRLTVTE
B3: TCR 31 (codon optimized, cysteine modified version) (TCR, V domains shown)
V domain 1: DQQVKQNSPSLSVQEGRISILNCDYTNSMFDYFLWYKKYPAEGPTFLISISSIKDKNEDGRFTVFLNKSAKHLSLHIVPSQPGDSAVYFCAASERGTYKYIFGTGTRLKVLA
V domain 2: GAGVSQSPSNKVTEKGKDVELRCDPISGHTALYWYRQSLGQGLEFLIYFQGNSAPDKSGLPSDRFSAERTGGSVSTLTIQRTQQEDSAVYLCASSRFLGSTDTQYFGPGTRLTVLE
B4: TCR 34 (codon optimized, cysteine modified version) (TCR, V domains shown)
V domain 1: ELKVEQNPLFLSMQEGKNYTIYCNYSTTSDRLYWYRQDPGKSLESLFVLLSNGAVKQEGRLMASLDTKARLSTLHITAAVHDLSATYFCAVSGTYKYIFGTGTRLKVLA
V domain 2: ETGVTQSPTHLIKTRGQQVTLRCSSQSGHNTVSWYQQALGQGPQFIFQYYREEENGRGNFPPRFSGLQFPNYSSELNVNALELDDSALYLCASSSYAGSYEQYFGPGTRLTVTE
B5: TCR 46 (codon optimized, cysteine modified version) (TCR, V domains shown)
V domain 1: AQSVTQLDSQVPVFEEAPVELRCNYSSSVSVYLFWYVQYPNQGLQLLLKYLSGSTLVKGINGFEAEFNKSQTSFHLRKPSVHISDTAEYFCAVSPSSGTYKYIFGTGTRLKVLA
V domain 2: GAGVSQTPSNKVTEKGKYVELRCDPISGHTALYWYRQSLGQGPEFLIYFQGTGAADDSGLPNDRFFAVRPEGSVSTLKIQRTERGDSAVYLCASSLYLGGSETQYFGPGTRLLVLE
B6: TCR 50 (codon optimized, cysteine modified version) (TCR, V domains shown)
V domain 1: GEDVEQSLFLSVREGDSSVINCTYTDSSSTYLYWYKQEPGAGLQLLTYIFSNMDMKQDQRLTVLLNKKDKHLSLRIADTQTGDSAIYFCAESPPGTYKYIFGTGTRLKVLA
V domain 2: DSGVTQTPKHLITATGQRVTLRCSPRSGDLSVYWYQQSLDQGLQFLIHYYNGEERAKGNILERFSAQQFPDLHSELNLSSLELGDSALYFCASSATRDAYGYTFGSGTRLTVVE
B7: TCR 37 (codon optimized, cysteine modified version) (TCR, V domains shown)
V domain 1: ELKVEQNPLFLSMQEGKNYTIYCNYSTTSDRLYWYRQDPGKSLESLFVLLSNGAVKQEGRLMASLDTKARLSTLHITAAVHDLSATYFCAGYSGAGSYQLTFGKGTKLSVIP
V domain 2: GAGVSQSPRYKVAKRGQDVALRCDPISGHVSLFWYQQALGQGPEFLTYFQNEAQLDKSGLPSDRFFAERPEGSVSTLKIQRTQQEDSAVYLCASSLLLGAYGYTFGSGTRLTVVE
B8: TCR 43 (codon optimized, cysteine modified version) (TCR, V domains shown)
V domain 1: QKEVEQNSGPLSVPEGAIASLNCTYSDRGSQSFFWYRQYSGKSPELIMFIYSNGDKEDGRFTAQLNKASQYVSLLIRDSQPSDSATYLCAVNVPTSGTYKYIFGTGTRLKVLA
V domain 2: EPEVTQTPSHQVTQMGQEVILRCVPISNHLYFYWYRQILGQKVEFLVSFYNNEISEKSEIFDDQFSVERPDGSNFTLKIRSTKLEDSAMYFCASTPRDSYEQYFGPGTRLTVTE
B9: TCR 47 (codon optimized, cysteine modified version) (TCR, V domains shown)
V domain 1: QKEVEQNSGPLSVPEGAIASLNCTYSDRGSQSFFWYRQYSGKSPELIMFIYSNGDKEDGRFTAQLNKASQYVSLLIRDSQPSDSATYLCAVNLLSGSARQLTFGSGTQLTVLP
V domain 2: B8 V domain 2 with S94M, P96G, D98T, S99T
B10: TCR 36 (codon optimized, cysteine modified version) (TCR, V domains shown)
V domain 1: RKEVEQDPGPFNVPEGATVAFNCTYSNSASQSFFWYRQDCRKEPKLLMSVYSSGNEDGRFTAQLNRASQYISLLIRDSKLSDSATYLCVVNRDNYGQNFVFGPGTRLSVLP
V domain 2: B8 V domain 2 with S94M, P96G, D98S, S99N
B11: TCR 48 (codon optimized, cysteine modified version) (TCR, V domains shown)
V domain 1: QKEVEQDPGPLSVPEGAIVSLNCTYSNSAFQYFMWYRQYSRKGPELLMYTYSSGNKEDGRFTAQVDKSSKYISLFIRDSQPSDSATYLCAMRIQGAQKLVFGQGTRLTINP
V domain 2: B8 V domain 2 with P96G, D98V
B12: TCR 40 (codon optimized, cysteine modified version) (TCR, V domains shown)
V domain 1: GQQVMQIPQYQHVQEGEDFTTYCNSSTTLSNIQWYKQRPGGHPVFLIQLVKSGEVKKQKRLTFQFGEAKKNSSLHITATQTTDVGTYFCAGRNNFNKFYFGSGTKLNVKP
V domain 2: B8 V domain 2 with S94I, P96A, D98S
B13: TCR 33 (codon optimized, cysteine modified version) (TCR, V domains shown)
V domain 1: B8 V domain 1 with V93A, P94H, T95H, S96T, T98G, Y99F, Y101T, T105A, K110F, L112K
V domain 2: B8 V domain 2 with S99T
B14: TCR 42 (codon optimized, cysteine modified version) (TCR, V domains shown)
V domain 1: B12 V domain 1 with R92P, N93D
V domain 2: B8 V domain 2 with S94K, P96S, D98S
B15: TCR 49 (codon optimized, cysteine modified version) (TCR, V domains shown)
V domain 1: B8 V domain 1 with V93I, P94G
V domain 2: B8 V domain 2 with D98Y
B16: TCR 35 (codon optimized, cysteine modified version) (TCR, V domains shown)
V domain 1: KDQVFQPSTVASSEGAVVEIFCNHSVSNAYNFFWYLHFPGCAPRLLVKGSKPSQQGRYNMTYERFSSSLLILQVREADAAVYYCAVAGDYKLSFGAGTTVTVRA
V domain 2: DSGVTQTPKHLITATGQRVTLRCSPRSGDLSVYWYQQSLDQGLQFLIQYYNGEERAKGNILERFSAQQFPDLHSELNLSSLELGDSALYFCASTTSGDSSYNEQFFGPGTRLTVLE
B17: TCR 45 (codon optimized, cysteine modified version) (TCR, V domains shown)
V domain 1: GQQVMQIPQYQHVQEGEDFTTYCNSSTTLSNIQWYKQRPGGHPVFLIQLVKSGEVKKQKRLTFQFGEAKKNSSLHITATQTTDVGTYFCAGSSGAGSYQLTFGKGTKLSVIP
V domain 2: GAGVSQSPSNKVTEKGKDVELRCDPISGHTALYWYRQRLGQGLEFLIYFQGNSAPDKSGLPSDRFSAERTGESVSTLTIQRTQQEDSAVYLCASSLYLGTTGELFFGEGSRLTVLE
B18: TCR 32 (codon optimized, cysteine modified version) (TCR, V domains shown)
V domain 1: TQLLEQSPQFLSIQEGENLTVYCNSSSVFSSLQWYRQEPGEGPVLLVTVVTGGEVKKLKRLTFQFGDARKDSSLHITAAQPGDTGLYLCAGGSNYKLTFGKGTLLTVNP
V domain 2: DSGVTQTPKHLITATGQRVTLRCSPRSGDLSVYWYQQSLDQGLQFLIQYYNGEERAKGNILERFSAQQFPDLHSELNLSSLELGDSALYFCASSVGGDHSDEQFFGPGTRLTVLE
B19: TCR 39 (codon optimized, cysteine modified version) (TCR, V domains shown)
V domain 1: GQQLNQSPQSMFIQEGEDVSMNCTSSSIFNTWLWYKQEPGEGPVLLIALYKAGELTSNGRLTAQFGITRKDSFLNISASIPSDVGIYFCAGYSSSNDYKLSFGAGTTVTVRA
V domain 2: EPEVTQTPSHQVTQMGQEVILRCVPISNHLYFYWYRQILGQKVEFLVSFYNNEISEKSEIFDDQFSVERPDGSNFTLKIRSTKLEDSAMYFCASTPRDRGKEAFFGQGTRLTVVE

target: T1, HLA-A2/E7 (11-19) tetramer (human; HPV 16); experiment: tetramer flow cytometry; transfected 1:1 CD4+ and CD4+/CD8+ Jurkat-derived cells;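 further: cells transiently transfected with TCR plasmids, stained 48 h later with HLA-A*02:01 peptide-MHC tetramer plus anti-CD8 antibody, read by flow cytometry to assess CD8-independent tetramer binding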
T1 construct: also called E7(11-19) peptide-MHC tetramer; E7 (11-19)-loaded tetramer
Description: For transfection, the CD4+ and CD4+/CD8+ cell mixtures were transiently transfected with TCR-encoding plasmids and 48 hours after transfection, cells were assessed by flow cytometry for (1) binding of the target peptide in the context of an MHC molecule (HLA:A02:01) by staining with an E6(29-38) peptide- or an E7(11-19) peptide-MHC tetramer reagent, and/or (2) CD8+ independent binding of the target by co-staining the tetramer-labeled cells with an anti-CD8 antibody.

| Binder | % cells in E7 tet+/CD8+ quadrant | % cells in E7 tet+/CD8- quadrant | % cells in E7 tet-/CD8+ quadrant | % cells in E7 tet-/CD8- quadrant |
| --- | --- | --- | --- | --- |
| B1 | 2.96% | 1.43% | 39.9% | 55.7% |
| B2 | 6.07% | 2.41% | 43.6% | 47.9% |
| B3 | 4.52% | 0.042% | 21.1% | 74.3% |
| B4 | 26.3% | 26% | 6.85% | 40.9% |
| B5 | 1.27% | 1.21% | 38.9% | 58.6% |
| B6 | 3.28% | 0.25% | 30.7% | 65.8% |
| B7 | 25.5% | 19.5% | 22.7% | 32.2% |
| B8 | 3.82% | 1.88% | 37.6% | 56.7% |
| B9 | 1.98% | 0.71% | 40.6% | 56.7% |
| B10 | 23.4% | 16.7% | 25.4% | 34.5% |
| B11 | 5.36% | 1.29% | 37% | 56.4% |
| B12 | 7.84% | 1.37% | 42.4% | 48.4% |
| B13 | 22.6% | 14% | 12.8% | 50.6% |
| B14 | 1.21% | 1.65% | 39.5% | 57.4% |
| B15 | 5.54% | 3.06% | 27.2% | 64.3% |
| B16 | 14.5% | 7.18% | 35.1% | 43.2% |
| B17 | 22.4% | 16.9% | 19.5% | 41.3% |
| B18 | 25.3% | 33.5% | 7.53% | 33.7% |
| B19 | 12.3% | 2.61% | 37% | 48% |
